Results taken from patent US20120231006A1 (Amgen, published 2012).

Columns and labels:
[1] = target: T1, mOrai1-hOrai1 ECL2 (AESVIV) protein (human/mouse chimera, UniProt Q8BWG9 1-304 (mouse entry)); assay: FACS, 293EBNA; set-up: concentration or dose not given beside the values
T1 construct: also called Ch
From the text: (§1) FIG. 16A-D illustrates the results of FACS analysis showing binding to the indicated mOrai1-hOrai1 ECL2 chimeric mutants expressed on the surface of HEK-293-EBNA cells. Transfected cells were stained first with recombinant monoclonal antibodies then counter-stained with a secondary phycoerythrin-labeled goat (“Gt”) anti-human (“Hu”) IgG F(ab′)₂ antibody fragment and visualized using FACS. In FIG. 16B and FIG. 16D, The values of Relative Fluorescence Intensity as Percent of Control (RFI-POC) are calculated from the relative fluorescence intensity geometric mean (Geo Mean). The geometric mean is an average calculated by multiplying a series of numbers and taking the nth root where n is the number of numbers in the series. It is a statistical average of a set of transformed numbers often used to represent a central tendency in a highly variable data set that minimizes the effects of extreme values.
(§2) Table 11A and Table 11B feature a schematic representation of the POC data from FIG. 16B and FIG. 16D, respectively, where the binding results are recorded as (+++) denoting binding POC from 40% to 100%, (++) for POC of 5% to less than 40%, (+) for POC from 1% to less than 5% and (−) as lack of binding with POC less than 1%.

[2] = target: T2, mOrai1-hOrai1 ECL2 (…) protein (human/mouse chimera, UniProt Q8BWG9 1-304 (mouse entry)); assay: FACS, 293EBNA; set-up: concentration or dose not given beside the values
T2 construct: also called Ch
From the text: as §1, §2
T2 sequence (Q8BWG9 other isoform, or with tags, fused parts or gaps): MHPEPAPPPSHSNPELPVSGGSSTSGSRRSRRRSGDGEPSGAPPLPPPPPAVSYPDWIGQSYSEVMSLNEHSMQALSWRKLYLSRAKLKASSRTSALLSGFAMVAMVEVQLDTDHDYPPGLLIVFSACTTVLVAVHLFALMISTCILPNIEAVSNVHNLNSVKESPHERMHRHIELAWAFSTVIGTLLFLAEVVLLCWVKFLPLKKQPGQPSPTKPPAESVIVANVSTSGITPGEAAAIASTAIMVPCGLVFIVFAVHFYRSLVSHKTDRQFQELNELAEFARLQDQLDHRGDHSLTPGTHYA

[3] = target: T3, mOrai1-hOrai1 ECL2 (KPPAE) protein (human/mouse chimera, UniProt Q8BWG9 1-304 (mouse entry)); assay: FACS, 293EBNA; set-up: concentration or dose not given beside the values
T3 construct: also called Ch
T3 sequence (Q8BWG9 other isoform, or with tags, fused parts or gaps): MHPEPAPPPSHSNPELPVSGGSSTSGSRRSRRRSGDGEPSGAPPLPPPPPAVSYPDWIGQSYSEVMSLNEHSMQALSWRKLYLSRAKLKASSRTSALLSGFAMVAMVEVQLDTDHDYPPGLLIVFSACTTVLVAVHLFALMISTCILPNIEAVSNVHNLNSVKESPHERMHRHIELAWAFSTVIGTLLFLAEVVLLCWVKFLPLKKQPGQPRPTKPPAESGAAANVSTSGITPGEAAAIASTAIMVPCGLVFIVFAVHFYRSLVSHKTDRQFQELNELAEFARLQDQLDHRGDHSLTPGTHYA
From the text: as §1, §2

[4] = target: T4, mOrai1-hOrai1 ECL2 (…) protein (human/mouse chimera, UniProt Q8BWG9 1-304 (mouse entry)); assay: FACS, 293EBNA; set-up: concentration or dose not given beside the values; remark: listed apart in the source
T4 construct: also called Ch
From the text: as §1, §2
T4 sequence (Q8BWG9 other isoform, or with tags, fused parts or gaps): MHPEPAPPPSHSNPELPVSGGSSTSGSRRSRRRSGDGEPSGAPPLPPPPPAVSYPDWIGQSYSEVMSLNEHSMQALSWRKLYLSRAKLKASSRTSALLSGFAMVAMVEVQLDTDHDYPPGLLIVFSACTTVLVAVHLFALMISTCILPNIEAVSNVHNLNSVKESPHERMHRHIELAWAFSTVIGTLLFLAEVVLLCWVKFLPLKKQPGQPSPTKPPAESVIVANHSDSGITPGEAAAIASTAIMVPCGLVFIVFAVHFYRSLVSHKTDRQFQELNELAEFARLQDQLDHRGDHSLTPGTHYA

[5] = target: T5, hOrai1-mOrai1 ECL2 chimeric protein (human/mouse chimera, UniProt Q96D31 1-301); assay: FACS, 293EBNA; set-up: concentration or dose not given beside the values
T5 construct: human Orai1 with mouse ECL2; also called Ch
T5 sequence (Q96D31 other isoform, or with tags, fused parts or gaps mutant): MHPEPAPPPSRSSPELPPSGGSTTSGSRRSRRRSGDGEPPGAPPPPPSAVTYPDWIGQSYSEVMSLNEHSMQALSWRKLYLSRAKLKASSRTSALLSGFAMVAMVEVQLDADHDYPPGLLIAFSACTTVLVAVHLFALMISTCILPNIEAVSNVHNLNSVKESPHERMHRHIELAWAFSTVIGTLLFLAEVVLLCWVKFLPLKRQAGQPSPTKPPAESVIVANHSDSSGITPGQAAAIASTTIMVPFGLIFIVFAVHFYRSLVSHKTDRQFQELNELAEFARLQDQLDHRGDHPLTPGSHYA
From the text: as §1, §2

[6] = target: T6, mOrai1-hOrai1 ECL2 (…) protein (human/mouse chimera, UniProt Q8BWG9 1-304 (mouse entry)); assay: FACS, 293EBNA; set-up: concentration or dose not given beside the values; remark: listed apart in the source
T6 construct: also called Ch
From the text: as §1, §2
T6 sequence (Q8BWG9 other isoform, or with tags, fused parts or gaps): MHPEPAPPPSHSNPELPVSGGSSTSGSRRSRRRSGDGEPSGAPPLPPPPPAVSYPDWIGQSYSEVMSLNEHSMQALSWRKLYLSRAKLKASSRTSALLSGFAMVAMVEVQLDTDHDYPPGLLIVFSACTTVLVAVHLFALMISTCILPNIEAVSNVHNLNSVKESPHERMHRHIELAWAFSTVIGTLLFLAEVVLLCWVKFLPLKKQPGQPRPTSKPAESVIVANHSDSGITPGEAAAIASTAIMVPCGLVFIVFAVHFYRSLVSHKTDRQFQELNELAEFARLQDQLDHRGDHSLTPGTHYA

[7] = target: T7, mOrai1-hOrai1 ECL2 (SPTKPPAE) protein (human/mouse chimera, UniProt Q8BWG9 1-304 (mouse entry)); assay: FACS, 293EBNA; set-up: concentration or dose not given beside the values
T7 construct: also called Ch
T7 sequence (Q8BWG9 other isoform, or with tags, fused parts or gaps): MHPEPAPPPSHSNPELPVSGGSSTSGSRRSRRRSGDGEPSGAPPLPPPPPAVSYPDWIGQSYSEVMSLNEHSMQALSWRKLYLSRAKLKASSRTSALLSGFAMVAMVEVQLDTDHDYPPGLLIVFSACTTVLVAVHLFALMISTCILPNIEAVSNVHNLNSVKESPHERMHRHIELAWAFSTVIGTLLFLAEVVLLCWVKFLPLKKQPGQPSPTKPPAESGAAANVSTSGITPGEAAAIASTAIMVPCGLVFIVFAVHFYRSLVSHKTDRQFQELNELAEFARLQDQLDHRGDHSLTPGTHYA
From the text: as §1, §2

[8] = target: T8, mOrai1-hOrai1 ECL2 (…) protein (human/mouse chimera, UniProt Q8BWG9 1-304 (mouse entry)); assay: FACS, 293EBNA; set-up: concentration or dose not given beside the values; remark: listed apart in the source
T8 construct: also called Ch
From the text: as §1, §2
T8 sequence (Q8BWG9 other isoform, or with tags, fused parts or gaps): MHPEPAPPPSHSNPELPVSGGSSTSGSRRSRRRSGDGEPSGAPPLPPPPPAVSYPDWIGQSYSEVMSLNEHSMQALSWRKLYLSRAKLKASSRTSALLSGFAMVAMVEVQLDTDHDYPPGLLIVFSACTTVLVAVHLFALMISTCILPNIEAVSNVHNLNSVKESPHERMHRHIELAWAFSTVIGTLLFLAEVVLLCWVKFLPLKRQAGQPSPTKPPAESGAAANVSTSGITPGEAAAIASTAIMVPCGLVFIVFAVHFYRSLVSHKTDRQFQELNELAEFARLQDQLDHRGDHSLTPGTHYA

[9] = target: T9, human Orai1 (human, UniProt Q96D31 1-301); assay: FACS Kd, AM1-CHO/hOrai1/hSTIM1-YFP cells
T9 construct: on AM1-CHO/hOrai1/hSTIM1-YFP, AM1/hOrai1, HEK-293 transfectants, endogenous on Jurkat and blood cells; in Westerns from cell lysates; also called hOrai1; CRACM1
T9 sequence (Q96D31 whole entry): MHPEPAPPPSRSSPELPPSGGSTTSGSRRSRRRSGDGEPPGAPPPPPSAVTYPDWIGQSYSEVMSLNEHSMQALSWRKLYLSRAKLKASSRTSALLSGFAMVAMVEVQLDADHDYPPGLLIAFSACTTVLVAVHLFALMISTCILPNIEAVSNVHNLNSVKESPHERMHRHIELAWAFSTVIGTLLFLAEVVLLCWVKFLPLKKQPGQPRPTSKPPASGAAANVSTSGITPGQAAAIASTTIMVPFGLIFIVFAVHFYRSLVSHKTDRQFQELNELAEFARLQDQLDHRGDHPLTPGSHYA
Outline: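 Cells from equilibrium plates washed in ice-cold D-PBS/2% FBS, stained with goat anti-human Fc Cy5 (5 μg/mL, 1 h on ice, dark), analysed by flow cytometry. Live-cell GeoMean gives bound antibody; its inverse serves as free antigen. Kd from n-curve fitting at two cell concentrations in KinExA.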

[10] = target: T10, mOrai1-hOrai1 ECL2 (HSD) protein (human/mouse chimera, UniProt Q8BWG9 1-304 (mouse entry)); assay: FACS, 293EBNA, RFI-POC grade; set-up: concentration or dose not given beside the values
T10 construct: also called Ch
T10 sequence (Q8BWG9 other isoform, or with tags, fused parts or gaps): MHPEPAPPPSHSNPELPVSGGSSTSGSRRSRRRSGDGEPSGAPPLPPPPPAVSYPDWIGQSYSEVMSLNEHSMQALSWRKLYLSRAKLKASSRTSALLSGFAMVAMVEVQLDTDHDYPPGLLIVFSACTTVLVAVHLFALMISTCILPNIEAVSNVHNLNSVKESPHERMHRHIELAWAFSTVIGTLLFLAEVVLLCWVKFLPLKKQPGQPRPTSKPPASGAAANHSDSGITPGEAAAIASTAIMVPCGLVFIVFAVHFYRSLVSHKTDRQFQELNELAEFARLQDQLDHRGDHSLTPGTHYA
From the text: as §1, §2

[11] = target: T11, mOrai1-hOrai1 ECL2 (VIV) protein (human/mouse chimera, UniProt Q8BWG9 1-304 (mouse entry)); assay: FACS, 293EBNA, RFI-POC grade; set-up: concentration or dose not given beside the values
T11 construct: also called Ch
T11 sequence (Q8BWG9 other isoform, or with tags, fused parts or gaps): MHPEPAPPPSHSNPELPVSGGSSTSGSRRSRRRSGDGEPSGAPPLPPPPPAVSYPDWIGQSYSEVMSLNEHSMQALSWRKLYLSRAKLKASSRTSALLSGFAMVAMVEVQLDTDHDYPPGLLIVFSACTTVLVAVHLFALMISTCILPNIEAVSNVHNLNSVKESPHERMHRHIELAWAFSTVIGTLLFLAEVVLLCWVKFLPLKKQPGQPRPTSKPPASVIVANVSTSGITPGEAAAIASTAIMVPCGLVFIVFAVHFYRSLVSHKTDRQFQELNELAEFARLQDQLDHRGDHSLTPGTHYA
From the text: as §1, §2

[12] = target: T12, mOrai1-hOrai1 ECL2 chimeric protein (human/mouse chimera, UniProt Q8BWG9 1-304 (mouse entry)); assay: FACS, 293EBNA, RFI-POC grade; set-up: concentration or dose not given beside the values
T12 construct: mouse Orai1 with human ECL2; also called Ch
T12 sequence (Q8BWG9 other isoform, or with tags, fused parts or gaps mutant): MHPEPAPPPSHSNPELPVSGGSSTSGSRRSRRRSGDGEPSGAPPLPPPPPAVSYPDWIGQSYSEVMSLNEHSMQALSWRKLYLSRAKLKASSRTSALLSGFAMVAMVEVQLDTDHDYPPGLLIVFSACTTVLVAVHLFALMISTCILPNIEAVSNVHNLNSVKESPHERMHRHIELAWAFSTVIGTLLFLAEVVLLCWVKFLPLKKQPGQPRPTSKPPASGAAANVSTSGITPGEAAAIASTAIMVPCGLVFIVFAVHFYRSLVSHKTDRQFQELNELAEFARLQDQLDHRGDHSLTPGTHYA
From the text: as §1, §2

[13] = target: T9, human Orai1; assay: cell-based or functional assay
[14] = target: T1, mOrai1-hOrai1 ECL2 (AESVIV) protein; assay: flow cytometry on HEK-293 cells transfected with the chimera (loss of binding experiment)
[15] = target: T2, mOrai1-hOrai1 ECL2 (…) protein; assay: as above
[16] = target: T3, mOrai1-hOrai1 ECL2 (KPPAE) protein; assay: as above
[17] = target: T4, mOrai1-hOrai1 ECL2 (…) protein; assay: as above; remark: listed apart in the source
[18] = target: T6, mOrai1-hOrai1 ECL2 (…) protein; assay: as above; remark: listed apart in the source
[19] = target: T7, mOrai1-hOrai1 ECL2 (SPTKPPAE) protein; assay: as above
[20] = target: T8, mOrai1-hOrai1 ECL2 (…) protein; assay: as above; remark: listed apart in the source

T1 sequence (Q8BWG9 other isoform, or with tags, fused parts or gaps): as the sequence (Q8BWG9 other isoform, or with tags, fused parts or gaps mutant) above, with P218A, A219E, G221V, A222I, A223V counted along it

B1: mAb 5A4.2 (antibody, human IgG2, lambda, V domains shown)
VH: QVQLVQSGAEVKKPGASVKVSCKASGYTFTDYYMNWVRQAPGQGLEWMGWINPNSGGTKYAQKFQGRVTMTRDTSIRTAYMELSRLRSDDTAVYYCSREYGGNSDWFDPWGQGTLVTVSS
VL: QSVLTQPPSVSGAPGQRVTISCTGSSSNIGAGYDVHWYQQLPGTAPKLLIYGNSNRPSGVPDRFSGSKSGTSASLAITGLQAEDEADYYCQSYDNRLSDSVVIGGGTKLTVQG
notes: fully human IgG2 lambda, Campaign 2
[1]
  POC (percent of control, FACS Geo Mean relative to binding to Ch. 1): < 1%
[2]
  POC (percent of control, FACS Geo Mean relative to binding to Ch. 1): < 1%
[3]
  POC (percent of control, FACS Geo Mean relative to binding to Ch. 1): < 1%
[4]
  POC (percent of control, FACS Geo Mean relative to binding to Ch. 1): < 1%
[5]
  POC (percent of control, FACS Geo Mean relative to binding to Ch. 1): < 1%
[6]
  POC (percent of control, FACS Geo Mean relative to binding to Ch. 1): < 1%
[7]
  POC (percent of control, FACS Geo Mean relative to binding to Ch. 1): < 1%
[8]
  POC (percent of control, FACS Geo Mean relative to binding to Ch. 1): < 1%
[9]
  Kd: 1.2 nM
[10]
  POC (percent of control, FACS Geo Mean relative to binding to Ch. 1): 40 to 100%
[11]
  POC (percent of control, FACS Geo Mean relative to binding to Ch. 1): 40 to 100%
[12]
  POC (percent of control, FACS Geo Mean relative to binding to Ch. 1): 40 to 100%
[13]
  IC50 IFN-γ, whole blood Donor A: 4.83 nM
  IC50 IFN-γ, whole blood Donor B: 2.76 nM
  IC50 IL-2, whole blood Donor A: 1.88 nM
  IC50 IL-2, whole blood Donor B: 1.21 nM
[14]
  binding result: no binding
[15]
  binding result: no binding
[16]
  binding result: no binding
[17]
  binding result: no binding
[18]
  binding result: no binding
[19]
  binding result: no binding
[20]
  binding result: no binding

B2: mAb 5F2.1 (antibody, human IgG2, lambda, V domains shown)
VH: QVQLVQSGAEVKKPGASVKVSCKASGYTFTDYYMNWVRQAPGQGLEWMGWINPNSGGTHYAQKFQGRVTMTRDTSISTAYMELSRLRSDDTAVYYCAREYGGYSDWFDPWGQGTLVTVSS
VL: QSVLTQPPSVSGAPGQRVTISCTGSRSNIGAGYDVHWYQQLPRTAPKLLIYDNSNRPSGVPDRFSGSKSGSSASLAITGLQAEDEADYYCQSYDNSLSDSVLIGGGTKLTVLG
notes: as for B1
[1]
  POC (percent of control, FACS Geo Mean relative to binding to Ch. 1): < 1%
[2]
  POC (percent of control, FACS Geo Mean relative to binding to Ch. 1): < 1%
[3]
  POC (percent of control, FACS Geo Mean relative to binding to Ch. 1): < 1%
[4]
  POC (percent of control, FACS Geo Mean relative to binding to Ch. 1): < 1%
[5]
  POC (percent of control, FACS Geo Mean relative to binding to Ch. 1): < 1%
[6]
  POC (percent of control, FACS Geo Mean relative to binding to Ch. 1): < 1%
[7]
  POC (percent of control, FACS Geo Mean relative to binding to Ch. 1): < 1%
[8]
  POC (percent of control, FACS Geo Mean relative to binding to Ch. 1): < 1%
[9]
  Kd: 0.767 nM
[10]
  POC (percent of control, FACS Geo Mean relative to binding to Ch. 1): 40 to 100%
[11]
  POC (percent of control, FACS Geo Mean relative to binding to Ch. 1): 40 to 100%
[12]
  POC (percent of control, FACS Geo Mean relative to binding to Ch. 1): 40 to 100%
[13]
  IC50 IL-2, whole blood Donor A: 4.83 nM
  IC50 IL-2, whole blood Donor B: 3.79 nM
[14]
  binding result: no binding
[15]
  binding result: no binding
[16]
  binding result: no binding
[17]
  binding result: no binding
[18]
  binding result: no binding
[19]
  binding result: no binding
[20]
  binding result: no binding
